Laboratory results published in patent US20250257149A1 (GLYCOTOPE, published 2025).

Assays:
[1] = biological target: T1, biotinylated TA-MUC1 peptides (Example 4b); assay: fluorescence proximity sensing (DRX, switchSENSE), biotinylated TA-MUC1 peptide captured by streptavidin; antibody at 3.7, 33.3 and 300 nM
T1 construct: also called antigen peptide
Source text: (§1) A new method to determine binding constants and affinity is the fluorescence proximity sensing using single stranded DNA (96mer) spotted on a chip and complementary DNA coupled to a ligand. In the present study streptavidin was used as a ligand to capture biotinylated TA-MUC1 peptides. […] On- and off-rates can be calculated during association and dissociation. Due to a higher sensitivity faster interactions can be monitored compared to surface plasmon resonance.
(§2) PankoMab and PM-N54Q were diluted from 300 nM in 1:9 steps to 3.67 nM in PE140 buffer and applied to the chip-bound peptides. Binding curves were evaluated by mono-exponential global fit (instrument software). Binding curves of PM and PM-N54Q are exemplarily shown in FIGS. 3A and B. Calculated affinities of PankoMab variants are shown in Table 2: […]

[2] = biological target: T2, MUC1 tandem repeat peptide APPAHGVTSAPD-T(X)-RPAPGSTAPPAHGVTSA with sialylated GalNAcalpha (sTn) at T (human, sialylated GalNAcalpha (sTn) O-glycan on the threonine of PDTR; biotinylated); assay: antigen ELISA on sTn-glycosylated PDTR MUC1 peptide [panel Binding to sTn-MUC1 peptide]
T2 construct: also called sTn-PDTR MUC1 peptide
T2 peptide: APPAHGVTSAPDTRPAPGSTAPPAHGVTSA

[3] = biological target: T3, MUC1 tandem repeat peptide APPAHGVTSAPD-T(X)-RPAPGSTAPPAHGVTSA with GalNAcalpha (Tn) at T (human, GalNAcalpha (Tn) O-glycan on the threonine of PDTR; biotinylated); assay: antigen ELISA on Tn-PDTR MUC1 peptide, purified antibody [panel Binding to Tn-MUC1]
T3 construct: also called Tn-PDTR MUC1 peptide; Tn-MUC1 peptide
T3 peptide: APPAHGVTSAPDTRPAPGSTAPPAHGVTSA

[4] = biological target: T4, MUC1 tandem repeat peptide APPAHGVTSAPD-T(X)-RPAPGSTAPPAHGVTSA with sialylated TF (sTF) at T (human, not fully specified; sialylated TF (sTF) O-glycan on the threonine of PDTR; biotinylated); assay: antigen ELISA on sTF-glycosylated PDTR MUC1 peptide [panel Binding to sTF-MUC1 peptide]
T4 construct: also called sTF-PDTR MUC1 peptide
T4 peptide: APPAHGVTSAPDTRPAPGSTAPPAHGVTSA

[5] = biological target: T3, MUC1 tandem repeat peptide …; assay: antigen ELISA on Tn-glycosylated PDTR MUC1 peptide
[6] = biological target: T1, biotinylated TA-MUC1 peptides (Example …); assay: fluorescence proximity sensing (DRX2 switchSENSE), biotinylated peptide captured by streptavidin
Source text: as §1, §2

[7] = biological target: T3, MUC1 tandem repeat peptide …; assay: SPR (Biacore), biotinylated peptide on streptavidin chip, steady-state fit of maximal RU
Protocol: (§3) Binding of the Fab-deglycosylated version of the MUC1-specific antibody PankoMab (PM-N54Q) on TA-MUC-1 derived glycosylated peptide was evaluated by surface plasmon resonance analysis (Biacore). A streptavidin sensor chip was coated with biotinylated TA-MUC1 peptide (Tn glycosylated or not glycosylated). PankoMab and PM-N54Q were diluted sequentially 1:3 from 3,600 to 4.9 nM in HPS-EP. The dilutions were injected at 50 μL/min. Maximal binding of each concentration was determined as response units (RU), respectively, and evaluated with GraphPad Prism using “one-site specific binding”. […] Therefore, in this experimental setting a nearly two-fold increase in affinity was detectable.

[8] = biological target: T5, MUC1 tandem repeat peptide APPAHGVTSAPD-T(X)-RPAPGSTAPPAHGVTSA with Galβ1-3GalNAcalpha (TF) at T (human, Galβ1-3GalNAcalpha (TF) O-glycan on the threonine of PDTR; biotinylated); assay: TA-MUC1 antigen ELISA, biotinylated glycopeptide
T5 construct: also called TF-PDTR MUC1 peptide; TF-MUC1 peptide
T5 peptide: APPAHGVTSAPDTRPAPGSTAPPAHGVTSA

[9] = biological target: T4, MUC1 tandem repeat peptide …; assay: TA-MUC1 antigen ELISA, biotinylated glycopeptide
[10] = biological target: T2, MUC1 tandem repeat peptide …; assay: TA-MUC1 antigen ELISA, biotinylated glycopeptide
[11] = biological target: T3, MUC1 tandem repeat peptide …; assay: TA-MUC1 antigen ELISA, biotinylated glycopeptide
[12] = biological target: T5, MUC1 tandem repeat peptide …; assay: antigen ELISA on TF-glycosylated PDTR MUC1 peptide [panel Binding to TF-MUC1 peptide]
[13] = biological target: T6, His-tagged FcγRIIIa (Glycotope GmbH) (UniProt P08637 17-208, limits assumed); assay: AlphaScreen competition, low-fucosylated antibody; His-tagged FcγRIIIa on Ni-chelate donor beads, competitor rabbit-anti-mouse coupled acceptor beads
T6 construct: also called Fcγ receptor IIIa; CD16a; not shown: His tag
T6 sequence (P08637 17-208 limits assumed): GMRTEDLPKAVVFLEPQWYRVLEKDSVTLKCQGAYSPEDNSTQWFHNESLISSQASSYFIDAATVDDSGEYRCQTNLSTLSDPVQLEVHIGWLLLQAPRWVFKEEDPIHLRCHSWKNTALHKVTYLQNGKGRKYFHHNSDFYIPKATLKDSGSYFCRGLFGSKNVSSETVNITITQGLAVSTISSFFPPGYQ
Source text: For the receptor binding assays, His-tagged FcγRIIIa (Glycotope GmbH) is captured by Ni-chelate donor beads. Anti-MUC1 antibodies and rabbit-anti-mouse coupled acceptor beads compete for binding to FcγR. In case of interaction of FcγR with rabbit-anti-mouse-bound acceptor beads, donor and acceptor beads come into close proximity which leads, upon laser excitation at 680 nm, to light emission. A maximum signal is achieved (signalₘₐₓ) without a competitor. In case of competition, where a test antibody binds to FcγR, the signalₘₐₓ is reduced in a concentration-dependent manner. Chemiluminescence was quantified by measurement at 520-620 nm (AlphaScreen® method) using an EnSpire 2300 multilabel reader (PerkinElmer). All results were expressed as the mean±standard deviation of duplicate samples. The data were evaluated and calculated using non-linear curve fitting (sigmoidal dose-response variable slope) with GraphPad Prism 5 software. As a result, a concentration dependent sigmoidal curve was obtained, which is defined by top-plateau, bottom-plateau, slope and EC₅₀.

[14] = biological target: T3, MUC1 tandem repeat peptide …; assay: antigen ELISA on Tn-glycosylated PDTR MUC1 peptide [panel Binding to Tn-MUC1 peptide]
[15] = biological target: T5, MUC1 tandem repeat peptide …; assay: antigen ELISA on TF-PDTR MUC1 peptide, purified antibody [panel Binding to TF-MUC1]
[16] = biological target: T3, MUC1 tandem repeat peptide …; assay: SPR (Biacore), biotinylated peptide on streptavidin chip
Protocol: as §3

B1: humanized antibody PankoMab N54Q (without Fab glycosylation) (antibody, human IgG1, kappa)
heavy: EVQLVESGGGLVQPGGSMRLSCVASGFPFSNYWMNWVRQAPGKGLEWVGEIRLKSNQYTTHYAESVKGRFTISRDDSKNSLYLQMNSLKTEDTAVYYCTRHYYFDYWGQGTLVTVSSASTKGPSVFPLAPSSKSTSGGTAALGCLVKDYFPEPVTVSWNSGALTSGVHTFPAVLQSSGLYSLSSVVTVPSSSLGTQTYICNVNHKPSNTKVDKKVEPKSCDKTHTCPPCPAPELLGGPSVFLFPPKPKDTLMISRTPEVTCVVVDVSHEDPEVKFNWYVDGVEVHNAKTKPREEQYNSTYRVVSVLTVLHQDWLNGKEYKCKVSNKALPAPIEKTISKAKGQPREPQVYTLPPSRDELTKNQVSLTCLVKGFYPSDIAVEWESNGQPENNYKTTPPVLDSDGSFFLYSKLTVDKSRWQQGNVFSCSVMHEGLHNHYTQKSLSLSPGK
light: DIVMTQSPLSNPVTPGEPASISCRSSKSLLHSNGITYFFWYLQKPGQSPQLLIYQMSNLASGVPDRFSGSGSGTDFTLRISRVEAEDVGVYYCAQNLELPPTFGQGTKVEIKRTVAAPSVFIFPPSDEQLKSGTASVVCLLNNFYPREAKVQWKVDNALQSGNSQESVTEQDSKDSTYSLSSTLTLSKADYEKHKVYACEVTHQGLSSPVTKSFNRGEC
notes: IgG1 kappa; Made in NM-H9D8 cells (for the FcγRIIIa assay also in NM-H9D8-E6Q12, low fucose); also called PM-N54Q; PM N54Q w/o Fab glyc
Kd [1]: 1.63 nM
koff [1]: 0.0109 s⁻¹
kon [1]: 6.7e+06 M⁻¹ s⁻¹
EC50 (read off the curve) [2]: ~100 ng/mL
EC50 (read off the curve) [3]: ~10 ng/mL
EC50 (read off the curve) [4]: ~10 ng/mL
EC50 (read off the curve) [5]: ~20 ng/mL
Kd [6]: 1.6 nM
Kd [7]: 388 nM
fold better binding compared to PankoMab-GEX® [8]: 2 fold
fold better binding compared to PankoMab-GEX® [9]: 2 fold
fold better binding compared to PankoMab-GEX® [10]: ~7 fold
fold higher binding compared to PankoMab-GEX® [11]: 4 fold
EC50 (read off the curve) [12]: ~10 ng/mL
IC50 (read off the curve) [13]: ~4000 ng/mL
EC50 (read off the curve) [14]: ~10 ng/mL
EC50 (read off the curve) [15]: ~10 ng/mL
fold increase in affinity compared to PankoMab-GEX® [16]: ~2 fold
